From PMC10178974 come the findings set out here.

What all share (test): BLI
In data set [1] the test system is Influenza A virus virions (hemagglutinin is the stated target of RHA0385) (Influenza A virus H7N1). The note with it: BLI: PBS pH 7.4 ([…]; temperature not stated. (In general: In BLI a coated tip is dipped into the sample, and binding shifts an interference pattern.)
The test system of data set [2] is Respiratory syncytial virus virions (surface protein not named) (Respiratory syncytial virus A2). As to conditions: BLI: PBS pH 7.4 (8 mM Na2HPO4, 1.5 mM KH2PO4, 140 mM NaCl, 10 mM KCl), 0.01% Tween-20, 0.1 mg/mL BSA; biotin-aptamer on streptavidin sensor; virus as analyte ….
The test system of data set [3] is Adenovirus type 5 virions (surface protein not named) (Human adenovirus 5?). The note with it: BLI: PBS pH 7.4 (8 mM Na2HPO4, 1.5 mM KH2PO4, 140 mM NaCl, 10 mM KCl), 0.01% Tween-20, 0.1 mg/mL BSA; biotin-aptamer on streptavidin sensor; virus as analyte ….
For data set [4], the target named is SARS-CoV-2 virions (S protein RBD is the stated target of RBD-1C) (SARS-CoV-2) (UniProt P0DTC2). The note with it: BLI: PBS pH 7.4 ([…]; temperature not stated.

pKd: −log10 of the molar value.

By pKd is commonly meant −log10 of the Kd, conventionally taken in molar units. Turning to “AGTGCGGTGAGCCGTCGGACATACAAATAC [Biotin-H8]”, the pKd was 11.46 in data set [1] and 13.51 in data set [2].

“TTGGGGTTATTTTGGGAGGGCGGGGGTT [Biotin-RHA0386 (RHA0385 in text)]”: in data set [1], the negative logarithm of the Kd (pKd) was 13.68.

With “GTGCCAGCTATGCCATTGGCGGGTCGTCCAATTCGAGAGGTCCCCTAGCGTCTATCTCTGCTGC [Biotin-ADV-20]”, the pKd in data set [3] is 13.96; in data set [1], 11.59; in data set [4], 10.30; in data set [2], 12.42.

Turning to “CAGCACCGACCTTGTGCTTTGGGAGTGCTGGTCCAAGGGCGTTAATGGACA [Biotin-RBD-1C]”, the pKd in data set [4] is 13.15.
